This note sets out measurements from patent publication US20190359951.

Common to all, as to assay: cell_activity
Series [1] relates to TALE #28-LSD1 fusion (ZFPM2 +45 enhancer) (synthetic construct; LSD1 Homo sapiens). Particulars: K562; histone modification levels reduced at target; expression change not statistically significant; +45 assigned to #28 from coordinates.
For series [2], the system named is TALE #14-LSD1 fusion (synthetic construct; LSD1 Homo sapiens). Particulars: K562 3'DGE confirmed by RT-qPCR; #14 identified via cDNA qPCR primer set in Table 2. For orientation: Real-time PCR tracks product formation cycle by cycle.
Series [3] relates to TALE #11-LSD1 fusion (ZFPM2 +16 enhancer) (synthetic construct; LSD1 Homo sapiens). Particulars: K562; histone modification levels reduced at target; expression change not statistically significant; +16 assigned to #11 from coordinates.
Series [4] concerns SCL enhancer TALE-LSD1 fusion (synthetic construct; LSD1 Homo sapiens). Particulars: K562 ChIP-qPCR vs mCherry; H3K27ac reduced >4-fold; target assigned to #4 by inference.
In series [5] the test system is TALE #25-LSD1 fusion (ZFPM2 +10 enhancer) (synthetic construct; LSD1 Homo sapiens). Particulars: K562 RT-qPCR; TALE #25 without LSD1 had no effect on ZFPM2.

For “TAAGTCTACATATAGTATCC (double strand) [TALE #28 target chr8:106,376,850]”, the activity (% ZFPM2 expression reduction) in series [1] is 22.

With “TAGCCGCGAGGAAGGCG (double strand) [TALE #14 target chrX:49,023,709]”, the activity (fold nearby gene down-regulation) in series [2] is over 1.5. Take “TCCAGTCCCTGGCTCCCATG (double strand) [TALE #11 target chr8:106,347,824]”: the activity (% ZFPM2 expression reduction) in series [3] is 13. With “TCCGTGGCTGCCAGTCTG (double strand) [SCL enhancer TALE target (TALE #4, chr1:47,647,018)]”, the activity (fold H3K4me2 reduction) in series [4] is 3. With “TTAAGCTTCTGAAGTCAG (double strand) [TALE #25 target chr8:106,341,287]”, in series [5], the activity (fold ZFPM2 expression reduction) is 2.
